In article PMC3509434:

What was measured:
[1] = biological target: soluble gB truncated at amino acid 749, gB(749t) (herpes simplex virus 1 (HSV-1), strain KOS) (UniProt P06437); assay: native gel or EMSA
[2] = biological target: soluble gB truncated at amino acid 749, gB(749t) (herpes simplex virus 1 (HSV-1), strain KOS) (UniProt P06437); assay: SEC
[3] = biological target: soluble gB truncated at amino acid 739, gB(739t) (herpes simplex virus 1 (HSV-1), strain KOS) (UniProt P06437); assay: native gel or EMSA
[4] = biological target: soluble gB truncated at amino acid 739, gB(739t) (herpes simplex virus 1 (HSV-1), strain KOS) (UniProt P06437); assay: SEC
[5] = biological target: soluble gB truncated at amino acid 773, gB(773t) (herpes simplex virus 1 (HSV-1), strain KOS) (UniProt P06437); assay: native gel or EMSA
[6] = biological target: soluble gB truncated at amino acid 773, gB(773t) (herpes simplex virus 1 (HSV-1), strain KOS) (UniProt P06437); assay: SEC
[7] = biological target: soluble gB truncated at amino acid 759, gB(759t) (herpes simplex virus 1 (HSV-1), strain KOS) (UniProt P06437); assay: native gel or EMSA
[8] = biological target: soluble gB truncated at amino acid 759, gB(759t) (herpes simplex virus 1 (HSV-1), strain KOS) (UniProt P06437); assay: SEC
[9] = biological target: soluble gB truncated at amino acid 730, gB(730t) (herpes simplex virus 1 (HSV-1)) (UniProt P06437); assay: SEC

soluble gB truncated at amino acid 749, gB(749t) (from UniProt P06437 31-749) (domain or fragment)
stoichiometry N [1]: 3
stoichiometry N [2]: 3

soluble gB truncated at amino acid 739, gB(739t) (from UniProt P06437 31-739) (domain or fragment)
stoichiometry N [3]: 3
stoichiometry N [4]: 3

soluble gB truncated at amino acid 773, gB(773t) (from UniProt P06437 31-773) (domain or fragment)
stoichiometry N [5]: 3
stoichiometry N [6]: 3

soluble gB truncated at amino acid 759, gB(759t) (from UniProt P06437 31-759) (domain or fragment)
stoichiometry N [7]: 3
stoichiometry N [8]: 3

soluble gB truncated at amino acid 730, gB(730t) (from UniProt P06437 31-730) (domain or fragment)
stoichiometry N [9]: 3
